Data on 14 molecules can be found in PMC6439349.

The stoichiometry N is a count of units in the complex or per binding partner.

For experiment [1], the target named is TioK. The experiment can be described thus: AUC.
Experiment [2] deals with TioK-Ecm8 complex (not stated | Streptomyces lasaliensis). The experiment is described as follows: AUC.
Experiment [3] deals with TioK-KtzJ complex (not stated | Kutzneria sp. 744). The experiment is described as follows: AUC.
The target in experiment [4] is TioK-MbtH complex (not stated | Mycobacterium tuberculosis H37Rv) (UniProt P9WIP4). The experiment can be described thus: […].
For experiment [5], the target named is TioK-MyabAaA complex (not stated | Mycobacterium abscessus). The experiment can be described thus: AUC.
Experiment [6] concerns the target TioK-MyavAcA complex (not stated | Mycobacterium avium). The experiment is described as follows: AUC.
The target in experiment [7] is TioK-MymaAcA complex (not stated | Mycobacterium marinum). The experiment is described as follows: AUC.
The target in experiment [8] is TioK-MypaAaA complex (not stated | Mycobacterium paratuberculosis). The experiment can be described thus: AUC.
For experiment [9], the target named is TioK-TioT complex (UniProt Q333U6). The experiment can be described thus: AUC.
Experiment [10] deals with TioK. The experiment is described as follows: […].

As for Ecm8 (natural protein), in experiment [1], the approximate mole fraction of TioK-MLP complex worked out at 0.76 and the stoichiometry N was found to be 1 MLP per TioK.

As to KtzJ (natural protein), in [1], the approximate mole fraction of TioK-MLP complex was determined as 0.92 and the stoichiometry N amounted to 1 MLP per TioK.

In [1], “PA2412 (from UniProt Q9I169 1-72) (natural protein)” showed an approximate mole fraction of TioK-MLP complex of 0.87 and a stoichiometry N of 1 MLP per TioK.

TioK-Ecm8 complex showed a stoichiometry N (multiple of MW(1:1)) in experiment [2] of 1.93.

As to TioK-KtzJ complex, the stoichiometry N (multiple of MW(1:1)) in experiment [3] turned out to be 1.92.

The molecule “TioK-MbtH complex (from UniProt P9WIP4 1-71)” yielded a stoichiometry N (multiple of MW(1:1)) in experiment [4] of 2.06.

In experiment [5], TioK-MyabAaA complex had a stoichiometry N (multiple of MW(1:1)) of 1.96.

In the case of TioK-MyavAcA complex, the stoichiometry N (multiple of MW(1:1)) in [6] worked out at 1.96.

On to TioK-MymaAcA complex, for which the stoichiometry N (multiple of MW(1:1)) in [7] is 1.94.

In turn, TioK-MypaAaA complex displayed a stoichiometry N (multiple of MW(1:1)) in experiment [8] of 2.05.

Regarding “TioK-TioT complex (from UniProt Q333U6 1-71)”, in [9], the stoichiometry N (multiple of MW(1:1)) was 1.98.

B1: CouY (natural protein)
chain: MATNPFDDENGVYLLLVNDEGQHSLWPSFAALPKGWTVILDEASRQECLDYVNEHWTDMRPLSLQPAMGDE
B1: in [1], the approximate mole fraction of TioK-MLP complex was 0.84 and the stoichiometry N was 1 MLP per TioK.

B2: TioT (natural protein)
chain: MSVNPFDDEDGEFYVLVNDEEQHSLWPTFGDVPDGWRIVFGPAGRAESVAYVEENWTDMRPKSLREAMSAA
Consider B2, for which, in experiment [1], the approximate mole fraction of TioK-MLP complex is 0.88 and the stoichiometry N is 1 MLP per TioK.

B3: MbtH (natural protein)
chain: MSTNPFDDDNGAFFVLVNDEDQHSLWPVFADIPAGWRVVHGEASRAACLDYVEKNWTDLRPKSLRDAMAED
In experiment [10], B3 had an approximate mole fraction of TioK-MLP complex of 0.82 and a stoichiometry N of 1 MLP per TioK.
